This is an account of results in publication PMC4778132, “CC chemokine receptor 10 cell surface presentation in melanocytes is regulated by the novel interaction partner S100A10” (Scientific Reports, 2016).

The target in experiment [1] is T1, recombinant HIS-tagged human S100A10 (wild type) (human, UniProt P60903 1-97).
T1 construct: human S100A10, cDNA in pET28a(+); also called HIS-S100A10; S100A10 wt; source: E. coli BL21(DE3)pLysS, purified (Ni-NTA); not shown: poly-histidine (HIS), N-terminal, kept
T1 sequence (P60903 whole entry): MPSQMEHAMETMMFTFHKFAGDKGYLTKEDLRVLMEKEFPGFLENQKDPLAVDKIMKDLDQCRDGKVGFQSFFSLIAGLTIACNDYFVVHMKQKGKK
The experiment in a line: SPR; Biacore 3000; GST-CCR10 CT amine-coupled on a CM5 chip; six concentrations of HIS-tagged S100A10 derivative injected; HBS-P buffer (10 mM Hepes pH 7.4, 150 mM NaCl, 0.005% Tween-20), 25 °C; binding to GST alone subtracted; single binding site model, KD by the Scatchard equation. The note with it: both partners purified. (In general: Surface plasmon resonance follows binding to a sensor surface in real time, without labels.)

The target in experiment [2] is T1, recombinant HIS-tagged human S100A10 …. The experiment can be described thus: pull-down; GST fusion proteins (50 μg) on glutathione sepharose beads incubated with purified protein (10 μg), 2 hours at 4 °C, IP buffer (20 mM Tris-HCl pH 7.5, 25 mM NaCl, 10 mM NaF, 1 mM EDTA, 0.1% Triton-X 100); immunoblot. The conditions noted are these: both partners purified. In general terms: A western blot detects proteins with antibodies after separation by electrophoresis.

B1: GST-CCR10 CT (C-terminal cytoplasmic tail of human CCR10 fused to GST) (domain or fragment, UniProt P46092 314-362, looked up)
chain: GLRFRQDLRRLLRGGSCPSGPQPRRGCPRRPRLSSCSAPTETHSLSWDN
notes: C-terminal cytosolic tail of human CCR10, amino acid residues 314-362 (methods); the results print 314-369; Cloned in pGex-4T-1; Results print 314-369, methods 314-362; also called CCR10 CT_(314–369); pGex-CCR10CT_(314–362)
The term Kd denotes the constant that tells how readily two partners part at equilibrium. In the case of B1, the equilibrium dissociation constant (Kd) in experiment [1] is ~1000 nM.

B2: GST-CCR10 CT truncation mutant T1 (domain or fragment, human, UniProt P46092 314-339, looked up)
chain: GLRFRQDLRRLLRGGSCPSGPQPRRG
notes: C-terminal tail of human CCR10, amino acid residues 314-339 (stop codon inserted into pGex-CCR10CT); also called T1 mutant
In the case of B2, the binding result in experiment [2] is reported as “binds”.
